Assay results reported in the supplement of paper PMC7877785.
± gives the uncertainty stated by the source.

Assay: self-splicing fitness, log relative to wild type (ln ratio); higher = more splicing; Tetrahymena group I intron in knt gene, E. coli kanamycin selection, DiMSum; sequences stand for … in CUCUCU…GGAGGGAAAAGUUAUCAGGCAUGCACCUGGUAGCUAGUCUUUAAACCAAUAGAUUGCAUCGGUUUAAAAGGCAAGACCGUCAAAUUGCGGGAAAGGGGUCAACAGCCGUUCAGUACCAAGUCUCAGGGGAAACUUUGAGAUGGCCUUGCAAAGGGUAUGGUAAUAAGCUGACGGACAUGGUCCUAACCACGCAGCCAAGUCCUAAGUCAACAGAUCUUCUGUUGAUAUGGAUGCAGUUCACAGACUAAAUGUCGGUCGGGGAAGAUGUAUUCUUCUCAUAAGAUAUAGUCGGACCUCUCCUUAAUGGGAGCUAGCGGAUGAAGUGAUGCAACACUGGAGCCGCUGGGAACUAAUUUGUAUGCGAAAGUAUAUUGAUUAGUUUUGGAGUACUCGUGGUCG
Summary of the method: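 Six replicate transformations of E. coli BL21(DE3) with a pET-22b(+) library were grown overnight at 37°C or 30°C. The library randomised all eight P1ex-region intron nucleotides, the intron lying in the knt kanamycin-resistance gene, and plates were LB agar with or without 25 μg/mL kanamycin plus 100 μg/mL carbenicillin, 50 μM IPTG and 0.2% rhamnose. Pooled colonies were amplicon-sequenced on an Illumina HiSeq 2500, and fitness is the DiMSum error-weighted combination of wild-type-normalised replicate fold changes, kanamycin versus none.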

With GGCUAGCAAUAUUACGCCGU as the sequence, how does the “self-splicing fitness (ln)” value (30 °C) read?
The value was -1.49 ± 0.11.

What about the “self-splicing fitness (ln)” value (37 °C) of the same sequence?
The value was -0.833 ± 0.17.

For CGCCAGCAAUAUUACGUACC, which “self-splicing fitness (ln)” value (30 °C) is on record?
Its value is -3.78 ± 0.29.

And the “self-splicing fitness (ln)” value (37 °C)?
The value was -2.74 ± 0.3.

Which “self-splicing fitness (ln)” value (30 °C) does the source give for CACGAGCAAUAUUACGAUCG here?
Its value is -1.14 ± 0.077.

And the “self-splicing fitness (ln)” value (37 °C)?
Its value is -0.291 ± 0.083.

With AACUAGCAAUAUUACGGGCG as the sequence, how does the “self-splicing fitness (ln)” value (30 °C) read?
The value was -0.139 ± 0.081.

What about the “self-splicing fitness (ln)” value (37 °C) of the same sequence?
The value was -0.0101 ± 0.11.

With CGUCAGCAAUAUUACGUCAU as the sequence, how does the “self-splicing fitness (ln)” value (30 °C) read?
The value was -3.73 ± 0.19.

And the “self-splicing fitness (ln)” value (37 °C)?
The value was -2.59 ± 0.16.

What does the source list for UCUAAGCAAUAUUACGCCAA?
self-splicing fitness (ln) (30 °C): -1.47 ± 0.32; self-splicing fitness (ln) (37 °C): -0.954 ± 0.23

For UCAGAGCAAUAUUACGUGAU, which “self-splicing fitness (ln)” value (30 °C) is on record?
Its value is -3.03 ± 0.32.

And the “self-splicing fitness (ln)” value (37 °C)?
Its value is -2.94 ± 0.26.

For CCCAAGCAAUAUUACGAACU, which “self-splicing fitness (ln)” value (30 °C) is on record?
The value was -3.54 ± 0.34.

And the “self-splicing fitness (ln)” value (37 °C)?
Its value is -2.91 ± 0.38.

Which “self-splicing fitness (ln)” value (30 °C) does the source give for AAAAAGCAAUAUUACGACUU here?
Its value is 0.0987 ± 0.065.

And the “self-splicing fitness (ln)” value (37 °C)?
The value was -0.391 ± 0.085.

Which “self-splicing fitness (ln)” value (30 °C) does the source give for CCAGAGCAAUAUUACGAGCG here?
The value was -0.698 ± 0.084.

And the “self-splicing fitness (ln)” value (37 °C)?
Its value is -0.775 ± 0.14.

What does the source list for GCGCAGCAAUAUUACGCUUU?
self-splicing fitness (ln) (30 °C): -1.39 ± 0.068; self-splicing fitness (ln) (37 °C): -0.38 ± 0.083

What does the source list for AUUGAGCAAUAUUACGCUCU?
self-splicing fitness (ln) (30 °C): -3.63 ± 0.24; self-splicing fitness (ln) (37 °C): -2.27 ± 0.17

Which “self-splicing fitness (ln)” value (30 °C) does the source give for AGUAAGCAAUAUUACGGAAA here?
The value was -3.26 ± 0.41.

And the “self-splicing fitness (ln)” value (37 °C)?
The value was -0.269 ± 0.23.

For GCUAAGCAAUAUUACGAGGC, which “self-splicing fitness (ln)” value (30 °C) is on record?
Its value is -1.85 ± 0.21.

And the “self-splicing fitness (ln)” value (37 °C)?
The value was -1.6 ± 0.33.

What does the source list for UUUGAGCAAUAUUACGAAUG?
self-splicing fitness (ln) (30 °C): -3.15 ± 0.25; self-splicing fitness (ln) (37 °C): -0.965 ± 0.29

For CUGGAGCAAUAUUACGAUGU, which “self-splicing fitness (ln)” value (30 °C) is on record?
Its value is -3.26 ± 0.16.

And the “self-splicing fitness (ln)” value (37 °C)?
Its value is -2.97 ± 0.23.

With UUAUAGCAAUAUUACGAGGA as the sequence, how does the “self-splicing fitness (ln)” value (30 °C) read?
Its value is -2.68 ± 0.3.

And the “self-splicing fitness (ln)” value (37 °C)?
Its value is -1.01 ± 0.23.

What does the source list for AAGUAGCAAUAUUACGUACA?
self-splicing fitness (ln) (30 °C): -0.476 ± 0.11; self-splicing fitness (ln) (37 °C): -0.759 ± 0.14

Which “self-splicing fitness (ln)” value (30 °C) does the source give for UACCAGCAAUAUUACGGGUA here?
The value was -3.45 ± 0.14.

What about the “self-splicing fitness (ln)” value (37 °C) of the same sequence?
Its value is -3.02 ± 0.15.

Which results are given for GUCCAGCAAUAUUACGCAGG?
self-splicing fitness (ln) (30 °C): -4.01 ± 0.18; self-splicing fitness (ln) (37 °C): -3.72 ± 0.24

For AGAGAGCAAUAUUACGGGUA, which “self-splicing fitness (ln)” value (30 °C) is on record?
The value was -4.04 ± 0.42.

And the “self-splicing fitness (ln)” value (37 °C)?
The value was -1.47 ± 0.19.

For AGAGAGCAAUAUUACGCCCA, which “self-splicing fitness (ln)” value (37 °C) is on record?
Its value is -0.88 ± 0.36.

For CUUAAGCAAUAUUACGUCAG, which “self-splicing fitness (ln)” value (30 °C) is on record?
Its value is -0.948 ± 0.084.

What about the “self-splicing fitness (ln)” value (37 °C) of the same sequence?
Its value is -0.564 ± 0.1.

Which “self-splicing fitness (ln)” value (30 °C) does the source give for GGACAGCAAUAUUACGUCAA here?
The value was -0.0403 ± 0.063.

And the “self-splicing fitness (ln)” value (37 °C)?
Its value is 0.0855 ± 0.085.

For CUAGAGCAAUAUUACGUUCC, which “self-splicing fitness (ln)” value (37 °C) is on record?
Its value is 0.291 ± 0.28.

With AGCAAGCAAUAUUACGACUU as the sequence, how does the “self-splicing fitness (ln)” value (30 °C) read?
Its value is 0.234 ± 0.098.

What about the “self-splicing fitness (ln)” value (37 °C) of the same sequence?
Its value is -0.294 ± 0.11.

With UUUAAGCAAUAUUACGUGAG as the sequence, how does the “self-splicing fitness (ln)” value (30 °C) read?
Its value is -0.404 ± 0.067.

What about the “self-splicing fitness (ln)” value (37 °C) of the same sequence?
Its value is -0.0655 ± 0.094.

With UUCCAGCAAUAUUACGCUGA as the sequence, how does the “self-splicing fitness (ln)” value (30 °C) read?
Its value is -3.73 ± 0.24.

And the “self-splicing fitness (ln)” value (37 °C)?
Its value is -1.91 ± 0.14.

What does the source list for UCCCAGCAAUAUUACGCAUG?
self-splicing fitness (ln) (30 °C): -4.28 ± 0.22; self-splicing fitness (ln) (37 °C): -2.41 ± 0.19

What does the source list for ACCCAGCAAUAUUACGUGCA?
self-splicing fitness (ln) (30 °C): -0.703 ± 0.067; self-splicing fitness (ln) (37 °C): -0.601 ± 0.072

For GCAAAGCAAUAUUACGAACA, which “self-splicing fitness (ln)” value (30 °C) is on record?
The value was -1.89 ± 0.14.

And the “self-splicing fitness (ln)” value (37 °C)?
The value was -1.73 ± 0.12.

Which results are given for UAUAAGCAAUAUUACGCCGG?
self-splicing fitness (ln) (30 °C): -0.545 ± 0.16; self-splicing fitness (ln) (37 °C): -0.0733 ± 0.18

With CGGGAGCAAUAUUACGAGGU as the sequence, how does the “self-splicing fitness (ln)” value (30 °C) read?
The value was -4.39 ± 0.39.

And the “self-splicing fitness (ln)” value (37 °C)?
The value was -2.18 ± 0.31.

Which “self-splicing fitness (ln)” value (30 °C) does the source give for GACGAGCAAUAUUACGCACU here?
The value was -1.32 ± 0.15.

What about the “self-splicing fitness (ln)” value (37 °C) of the same sequence?
The value was -0.506 ± 0.16.

Which “self-splicing fitness (ln)” value (30 °C) does the source give for ACUCAGCAAUAUUACGCCUU here?
Its value is -0.619 ± 0.053.

What about the “self-splicing fitness (ln)” value (37 °C) of the same sequence?
Its value is 0.491 ± 0.067.

For CUUAAGCAAUAUUACGCAUC, which “self-splicing fitness (ln)” value (37 °C) is on record?
Its value is -0.617 ± 0.29.

For AGGCAGCAAUAUUACGUUCG, which “self-splicing fitness (ln)” value (30 °C) is on record?
Its value is -0.642 ± 0.079.

And the “self-splicing fitness (ln)” value (37 °C)?
The value was -0.181 ± 0.11.

With CACGAGCAAUAUUACGUGGA as the sequence, how does the “self-splicing fitness (ln)” value (30 °C) read?
Its value is -3.08 ± 0.17.

What about the “self-splicing fitness (ln)” value (37 °C) of the same sequence?
Its value is -2.2 ± 0.17.
